How the values were obtained:
[1] = biological target: T1, CaV1.2 IQ domain IQ domain (Homo sapiens, UniProt Q13936, Ca2+); experiment: competition ITC
[2] = biological target: T1, CaV1.2 IQ domain IQ domain; experiment: ITC, 15°C
[3] = biological target: T1, CaV1.2 IQ domain IQ domain; experiment: ITC, 25°C

T1 sequence (Q13936 1665-1685): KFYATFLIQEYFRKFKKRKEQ

Row | Binder | Kd [1] | Kd [2] | Kd [3]
1 | CaBP1 16-167 (protein) ARLQRVLGLGSRREPRSLPAGGPAPRRTAPPPPGHASAGPAAMSSHIAKSESKTSLLKAAAAAASGGSRAPRHGPARDPGLPSRRLPGSCPATPQSSGDPSSRRPLCRPAPREEGARGSQRVLPQAHCRPREALPAAASRPSPSSPLPPARG | 0.288 nM |  | 
2 | CaBP1 C-lobe C-lobe (protein) ADMIGVKELRDAFREFDTNGDGEISTSELREAMRKLLGHQVGHRDIEEIIRDVDLNGDGRVDFEEFVRMMSR |  | 10.5 nM | 15 nM
3 | CaBP1 N-lobe N-lobe (protein) not shown |  | 1100 nM | 
